T1: human MSR1 extracellular domain expressed with a N-terminal nonahistidine tag (His9-hMSR1); R&D Systems, Cat … (human, UniProt P21757 77-451)
T1 construct: extracellular domain; Bought protein; also called His-hMSR1
T1 sequence: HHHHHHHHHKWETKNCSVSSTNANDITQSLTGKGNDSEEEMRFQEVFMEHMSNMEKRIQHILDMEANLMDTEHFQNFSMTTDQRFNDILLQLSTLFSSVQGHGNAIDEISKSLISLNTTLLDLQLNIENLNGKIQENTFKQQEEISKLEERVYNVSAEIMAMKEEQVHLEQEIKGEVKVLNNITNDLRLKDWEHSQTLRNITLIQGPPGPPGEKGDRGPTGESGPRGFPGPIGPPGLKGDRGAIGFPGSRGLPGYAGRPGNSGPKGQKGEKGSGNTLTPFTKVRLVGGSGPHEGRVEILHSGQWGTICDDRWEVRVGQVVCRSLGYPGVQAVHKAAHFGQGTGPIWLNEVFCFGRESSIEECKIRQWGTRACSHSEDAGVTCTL

T2: monkey MSR1 extracellular domain expressed with a N-terminal hexahistidine-myc-myc tag (HMM-mfMSR1) (monkey (Macaca fascicularis))
T2 chain: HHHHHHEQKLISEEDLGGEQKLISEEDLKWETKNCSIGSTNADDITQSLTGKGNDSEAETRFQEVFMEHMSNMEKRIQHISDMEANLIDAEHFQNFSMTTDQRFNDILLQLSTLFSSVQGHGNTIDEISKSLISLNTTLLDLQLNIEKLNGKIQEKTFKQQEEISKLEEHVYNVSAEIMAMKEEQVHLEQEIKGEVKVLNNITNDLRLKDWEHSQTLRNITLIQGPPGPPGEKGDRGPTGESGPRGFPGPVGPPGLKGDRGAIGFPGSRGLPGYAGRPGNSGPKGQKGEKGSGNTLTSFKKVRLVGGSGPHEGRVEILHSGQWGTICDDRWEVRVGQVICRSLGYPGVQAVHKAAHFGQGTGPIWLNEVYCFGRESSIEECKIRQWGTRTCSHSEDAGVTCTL

T3: full length monkey MSR1 on HEK293.mfMSR1 cells (Macaca fascicularis, UniProt A0A2K5UWE2 1-451)
T3 construct: whole, on cells
T3 sequence: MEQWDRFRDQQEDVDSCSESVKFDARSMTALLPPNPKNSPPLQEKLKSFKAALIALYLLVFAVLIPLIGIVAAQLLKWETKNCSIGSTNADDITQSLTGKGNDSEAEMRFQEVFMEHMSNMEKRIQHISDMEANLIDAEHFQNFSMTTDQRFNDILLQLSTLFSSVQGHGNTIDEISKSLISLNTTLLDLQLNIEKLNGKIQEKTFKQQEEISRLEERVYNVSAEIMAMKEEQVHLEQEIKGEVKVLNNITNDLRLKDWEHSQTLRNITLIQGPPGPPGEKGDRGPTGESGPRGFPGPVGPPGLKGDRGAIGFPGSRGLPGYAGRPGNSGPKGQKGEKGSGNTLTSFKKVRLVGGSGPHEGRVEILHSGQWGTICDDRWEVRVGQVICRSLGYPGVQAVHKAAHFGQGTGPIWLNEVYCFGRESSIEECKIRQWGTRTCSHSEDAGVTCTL

T4: full length human MSR1 with a C-terminal Myc tag on HEK293.Myc.hMSR1 cells (human, UniProt P21757 1-451)
T4 construct: whole, on cells
T4 sequence (looked up): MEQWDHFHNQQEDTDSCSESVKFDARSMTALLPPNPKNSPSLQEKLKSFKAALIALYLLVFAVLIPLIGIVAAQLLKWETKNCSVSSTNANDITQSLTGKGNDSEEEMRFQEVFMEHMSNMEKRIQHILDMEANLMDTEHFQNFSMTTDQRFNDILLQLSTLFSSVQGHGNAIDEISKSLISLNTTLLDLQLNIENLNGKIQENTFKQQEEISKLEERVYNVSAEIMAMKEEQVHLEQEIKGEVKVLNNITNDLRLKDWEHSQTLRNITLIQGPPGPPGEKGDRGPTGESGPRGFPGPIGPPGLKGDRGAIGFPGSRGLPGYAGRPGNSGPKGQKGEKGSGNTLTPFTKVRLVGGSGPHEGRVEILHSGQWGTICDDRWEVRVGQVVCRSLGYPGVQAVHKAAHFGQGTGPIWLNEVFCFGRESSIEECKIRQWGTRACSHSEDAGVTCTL

T5: human MSR1 extracellular domain expressed with a N-terminal nonahistidine tag (human, UniProt P21757 77-451)
T5 construct: extracellular domain; Bought reagent; also called His9-hMSR1
T5 sequence: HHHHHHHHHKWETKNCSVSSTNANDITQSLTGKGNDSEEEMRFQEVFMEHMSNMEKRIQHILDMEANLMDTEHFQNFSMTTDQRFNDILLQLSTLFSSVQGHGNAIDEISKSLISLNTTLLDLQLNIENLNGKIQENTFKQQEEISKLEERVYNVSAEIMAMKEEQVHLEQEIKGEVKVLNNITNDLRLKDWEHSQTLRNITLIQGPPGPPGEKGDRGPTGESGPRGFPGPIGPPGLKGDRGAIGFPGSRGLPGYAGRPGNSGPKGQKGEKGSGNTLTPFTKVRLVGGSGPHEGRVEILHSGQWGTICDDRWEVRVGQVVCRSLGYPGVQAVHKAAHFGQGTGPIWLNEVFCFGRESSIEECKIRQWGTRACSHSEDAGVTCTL

T6: monkey MSR1 extracellular domain expressed with a N-terminal hexahistidine-myc-myc tag (monkey (Macaca fascicularis))
T6 construct: also called HMM-mfMSR1
T6 chain: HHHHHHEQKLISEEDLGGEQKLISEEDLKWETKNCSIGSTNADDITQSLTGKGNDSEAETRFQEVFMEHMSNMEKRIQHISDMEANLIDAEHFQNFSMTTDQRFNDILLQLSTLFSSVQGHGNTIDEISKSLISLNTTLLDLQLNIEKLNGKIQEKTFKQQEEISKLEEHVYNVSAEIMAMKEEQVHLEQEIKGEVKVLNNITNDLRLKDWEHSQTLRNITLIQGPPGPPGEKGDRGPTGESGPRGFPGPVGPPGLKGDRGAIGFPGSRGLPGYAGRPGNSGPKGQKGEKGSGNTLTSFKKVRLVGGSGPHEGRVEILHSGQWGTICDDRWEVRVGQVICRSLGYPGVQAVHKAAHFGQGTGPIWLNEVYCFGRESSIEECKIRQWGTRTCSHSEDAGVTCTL


Key:
[1] = molecular target: T1, human MSR1 extracellular domain …; assay: SPR Biacore, 25C, mAb captured by anti-human Fc, MSR1 as analyte;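 further: Half-life of complex dissociation derived from kinetic rates, obtained by fitting Biacore 4000 sensorgrams to a 1:1 model including mass transport, run in HBS-ET buffer at pH 7.4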
Method: (§1) Binding affinities and kinetic constants of human anti-MSR1 antibodies for different MSR1 reagents were determined by real-time surface plasmon resonance (Biacore 4000). All binding studies were performed in 10 mM HEPES, 150 mM NaCl, 3 mM EDTA, and 0.05% v/v Surfactant Tween-20, pH 7.4 (HBS-ET) running buffer at 25° C. and 37° C.
(§2) The association rate (kₐ) and dissociation rate (kd) were determined by fitting the real-time binding sensorgrams to a 1:1 binding model with mass transport limitation using Scrubber 2.0 c curve-fitting software.

[2] = molecular target: T2, monkey MSR1 extracellular domain …; assay: as above
Method: as §1, §2

[3] = molecular target: T1, human MSR1 extracellular domain …; assay: SPR Biacore, 25C, mAb captured by anti-human Fc, MSR1 as analyte; calculated from kd fixed at 1.00E-05
Method: as §1, §2

[4] = molecular target: T3, full length monkey MSR1 on …; assay: ECL cell binding, HEK293.mfMSR1
[5] = molecular target: T4, full length human MSR1 with a …; assay: ECL cell binding, HEK293.Myc.hMSR1
[6] = molecular target: T5, human MSR1 extracellular domain …; assay: SPR 37C, mAb captured; no dissociation seen, kd fixed
Method: as §1, §2

[7] = molecular target: T6, monkey MSR1 extracellular domain …; assay: as above
Method: as §1, §2

Binder	t½ [1] [min]	t½ [2] [min]	further results
H1H27759P-N297Q (antibody, V domains shown, human IgG1 Fc with N297Q point mutation; also called H1H27759P2-N297Q; H1xH27759P2) VH: EVQLVESGGGFVQPGGSLRLSCAASGFTFSSYAMSWVRQAPGKGLEWVSAISGTGSNTYYADSVKGRFTISRDNSKNTLYLQMNSLRAEDTAVYYCAKDRVTTVTYYFDYWGQGTLVTVSS VL: not shown	9	13	–
H1H27732P-N297Q (antibody, V domains shown, human IgG1 Fc with N297Q point mutation) VH: QLQLQESGPGLVKPSETLSLTCTVSGGSISSSTYYWGWIRQPPGKGLEWIGSFYYSGSTYYNPSLKSRVTISVGTSKNQFSLKLSSVTAADTAVYFCARGGLLGRPFVIWGQGTMVTVSS VL: DIQMTQSPSSLSASVGDRVTITCRASQGIRNDLGWYQQKPGKAPKRLIYAASSLQSGVPSRFSGSGSGTEFTLTISSLQPEDFATYYCLQHNSYPLTFGGGTKVEIKR	–	364	t½ [3]: 1160 min
H1H27762P-N297Q (antibody, V domains shown, human IgG1 Fc with N297Q point mutation; also called H1H27762P2-N297Q; H1H27762P2) VH: QVQLVQSGAEVKKPGSSVKVSCKASGGTFSRYDISWVRQAPGQGLEWMGGIIPIFGTSNYAQKFQGRVTITTDESTSTVYMELSSLRSEDTAVYYCARGGRYGWFDPWGQGTLVTVSS VL: not shown	6	6	–
H1H27756P-N297Q (antibody, V domains shown, human IgG1 Fc with N297Q point mutation) VH: QVQLVESGGGVVQPGRSLRLSCAASGFTFSNYDMHWVRQAPGKGLEWMAVISYDGINKYYADSVKGRFTISRDNSKNTLYLQMNSLRAEDTAVYYCAKGTYSWYFDLWGRGTLVTVSS VL: not shown	94	5	–
H1H27739P-N297Q (antibody, V domains shown, human IgG1 Fc with N297Q point mutation) VH: EVQLVESGGGLVQPGGSLRLSCTASGFTFSSYAMSWVRQAPGKGLEWVSAISGTGSSTYFTDSVKGRFAISRDNSKNTLYLQMNSLRAEDTAVYYCAKDGEWLSTVTLFDYWGQGTLVTVSS VL: EIVMTQSPATLSVSPGERATLSCRASQSVSSNLAWYQQKPGQAPRLLIYGASTRATGIPARFSGSGSGTDFTLTISSLQSEDFALYYCQQYFIWPPHPTFGPGTKVDIKR	11	80	–
H1H27760P-N297Q (antibody, V domains shown, human IgG1 Fc with N297Q point mutation; also called H1H27760P2-N297Q; H1H27760P2) VH: EVQLVESGGGLVQPGRSLRLSCAASGFTFDAYAMHWVRQAPGKGLEWVSGISWNSGSIGYADSVKGRFTISRDNAKNSLYLQMNSLREEDTALYYCAKDKILELYYYGMDVWGQGTTVTVSS VL: not shown	13	16	–
H1H27731P-N297Q (antibody, V domains shown, human IgG1 Fc with N297Q point mutation) VH: QLQLQESGPGLVKPSETLSLTCTVSGGSISRISYYWGWIRQPPGKGLEWIGSIYDSGSTYYNPSLKSRVTISIDTSKNQFSLKLSSVTAADTAVYYCVRYSSSSAFAFDYWGQGTLVTVSS VL: DIQMTQSPSSVSASVGDRVTITCRASQGISSWLAWYQQKPGKAPKLLIYAASSLQSGVPSRFSGSGSGTDFTLTISSLQPEDFATYYCQQANSFPFTFGPGTKVDIKR	515	247	–
H1H27754P-N297Q (antibody, V domains shown, human IgG1 Fc with N297Q point mutation) VH: EVQLVESGGGLVQPGGSLRLSCAASGFTFRTYAMTWVRQAPGKGLDWVSAITGDGGNTYYADSVKGRFTISRDNSKNTLYLQMNSLRAEDTAIYYCAKDQRFSFALYYFDYWGQGTLVTVSS VL: DIQMTQSPSSVSASVGDRVTITCRASQGISSWLAWYQQKPGNAPKLLIYAAFSLQSGVPSRFSGSGSGTDFTLTISSLQPEDFATYYCQQANNFPWTFGQGTKVEIKR	–	657	t½ [3]: 1160 min
H1H21234N-N297Q (antibody, V domains shown, human IgG1 Fc with N297Q point mutation) VH: QVQLQESGPGLVKPSETLSLTCTVTGGSISRNYWSWIRQPPGKGLEWIGYIYYSGSIDYNPSLKSRVTISVDTSKNQFSLKLSSMTAADTAVYYCARDRWNWKYGMDVWGQGTTVIVSS VL: EIVLTQSPGTLSLSPGERATLSCRASQTVRNNYLAWYHQKPGQAPRLLIYGASSRATGIPDRFSGSGSGTDFTLTISRLEPEDFTVYYCHQYGNSPWTFGQGTKMEIKR	–	593	t½ [3]: 1160 min
H1H21234N (antibody, human IgG1, V domains shown, original human IgG1 Fc) VH: QVQLQESGPGLVKPSETLSLTCTVTGGSISRNYWSWIRQPPGKGLEWIGYIYYSGSIDYNPSLKSRVTISVDTSKNQFSLKLSSMTAADTAVYYCARDRWNWKYGMDVWGQGTTVIVSS VL: EIVLTQSPGTLSLSPGERATLSCRASQTVRNNYLAWYHQKPGQAPRLLIYGASSRATGIPDRFSGSGSGTDFTLTISRLEPEDFTVYYCHQYGNSPWTFGQGTKMEIKR	–	–	binding signal ratio to isotype control (11 nM) [4]: 31 fold; binding signal ratio to isotype control (11 nM) [5]: 32 fold; Kd [6]: ≤ 0.0148 nM; Kd [7]: ≤ 0.0138 nM

Second part, led by results:

t½ [1] [min]	t½ [2] [min]	Binder	further results
23	19	H1H27761P-N297Q (antibody, V domains shown, human IgG1 Fc with N297Q point mutation; also called H1H27761P2-N297Q; H1H27761P2) VH: EVQLVESGGDLVQPGGSLRLSCSASGFTFNIYAMSWVRQAPGKGLEWVSGISGSGGSTYYADSVKGRFTISRDNSKNTLYFQMNSLRVEDTAVYYCAKKISSSSYYYYAMDVWGQGTTVTVSS VL: not shown	–
11	5	H1H27729P-N297Q (antibody, V domains shown, human IgG1 Fc with N297Q point mutation) VH: QVQLVESGGGLVKPGGSLRLSCAASGFIFSDYYMSWIRQAPGKGLEWVSYISSSGTTIYGDSVKGRFTMSRDNAKNSLYLQMNSLRAEDTAVYYCARNYALFDYWGQGTLVTVSS VL: DIQMTQSPSSLSASVGDRVTITCQASQDISKYLNWYQQKPGKAPKLLIYYTSNLETGVPSRFSGSGSGTDFTFTISSLQPEDIATYYCHQSDYLPFTFGPGTKVDIKR	–
10	4	H1H27734P-N297Q (antibody, V domains shown, human IgG1 Fc with N297Q point mutation) VH: EVQLVESRGGLVQPGGSLRLSCAASGFTFSSYAMSWVRQAPGKGLEWVSAISGSGGSTFYADSVKGRFTISRDNSKNTVYLQMNSLRAEDTAVYYCAKALVLRFLEWLGDYWGQGTLVTVSS VL: DIQMTQSPSTLSASVGDRVTITCRASQSISSWLAWFQQKPGKAPKLLIYKASSLESGVPSRFSGSGSGTEFTLTISSLQPDDFATYYCQQYKSYWTFGQGTKVEIKR	–
38	15	H1H27751P-N297Q (antibody, V domains shown, human IgG1 Fc with N297Q point mutation) VH: EVQLVESGGGLVQPGGSLRLSCAASGFTFSNYAMHWVRQAPGKGLEYVSAISSNGGSTYYADSVKGRITISRDNSKNTLYLQMGSLRAEDMAVYYCARGRPYYYYFGMDVWGQGTTVTVSS VL: not shown	–
620	145	H1H27766P-N297Q (antibody, V domains shown, human IgG1 Fc with N297Q point mutation; also called H1H27766P2-N297Q; H1H27766P2) VH: EVQLVESGGGLVQPGGSLRLSCAASGFTFSSFAMSWVRQAPGKELEWVSSISGRGGSTYYADSVRGRFTISRDNSKITLYLQMNSLRAEDTAVYYCAKDIVFRYTSSAYWYFDLWGRGTLVTVSS VL: not shown	–
